Laboratory results: US20240084003A1 (SIMCERE ZAIMING PHARMACEUTICAL, published 2024)

B1: F1.7.6 human-murine chimeric antibody (antibody, human IgG1, kappa, V domains shown)
VH: EIQLQQSGPELVKPGTSVKVSCKASGYDFTRYNMYWVKQSHGKSLEWIGYIDPYNGDTRYNQKFKGKATLTVDKSSSTAYMHLNSLTSEDSAVYYCEAIYYDMEGYALDYWGQGTSVTVSS
VL: DIVMSQSPSSLAVSVGEKVTMSCKSSQSLLYSNNQKNYLAWYQQKPGQSPKKLIYWASTRESGVPDRLTGSGSGTDFTLTISSVTAEDLAVYYCQQFYSYPWTFGGGTKLEIKR
notes: Chimeric, human IgG1 / kappa; VL tied by name
B2: F1.105.11 human-murine chimeric antibody (antibody, human IgG1, kappa, V domains shown)
VH: EVQLQQSGPVLVKPGASVKMSCKASGYTFSDYFMNWVKQSHGKSLEWIGIINSYSGGTSYNQKFKGKATLTVDKSSSTAYMELNSLTSEDSAVYYCARWMDYWGQGTSVTVSS
VL: DVQITQSPSYLAASPGETITINCRTSESISKHLAWYQEKPGKTNKLLIYSGSTLQSGIPSRFSGSGSGTDFTLTISSLEPEDFAMYYCQQHNEYPWTFGGGTKLEIKR
notes: as for B1
B3: F1.267.9 human-murine chimeric antibody (antibody, human IgG1, kappa, V domains shown)
VH: EVQLQQSGPVLVKPGASVKMSCKASGYTFTDFYMNWAKQSHGKSLEWVGVINPYNGGINYNQKFKGKATLTVDKSSSTAYMEFNSLTSEDSAVYYCARRMEYHAMDYWGQGTSVTVSS
VL: DIVLTQSPASLAVSLGQRATISCRASESVDNYGFDFIHWYQQKPGQPPKLLIYRASNLESGIPARFSGSGSRPDFTLTINPVETDDVATYYCQQSIKDPWTFGGGTKLEIKR
notes: as for B1
B4: m971-hIgG1 (antibody, V domains shown)
VH: QVQLQQSGPGLVKPSQTLSLTCAISGDSVSSNSAAWNWIRQSPSRGLEWLGRTYYRSKWYNDYAVSVKSRITINPDTSKNQFSLQLNSVTPEDTAVYYCAREVTGDLEDAFDIWGQGTMVTVSS
VL: DIQMTQSPSSLSASVGDRVTITCRASQTIWSYLNWYQQRPGKAPNLLIYAASSLQSGVPSRFSGRGSGTDFTLTISSLQAEDFATYYCQQSYSIPQTFGQGTKLEIKR
notes: Positive control anti-human CD22 antibody; V regions from US 8,591,889 B on human IgG1 constant regions
B5: F1.231.15 human-murine chimeric antibody (antibody, human IgG1, V domains shown)
VH: QVQLQQPGAELVKPGASVKLSCKTSGYTFTIYWMQWVKQRPGRGLEWIGRIDPHSGDTHYNENFTTKVTLTVDETSNTAYMHLSGLTSEDSAVYYCARRDYSYYVLDYWGQGTSVTVSS
VL: DVVLTQTPLSLPVSLGDQASISCRSSQSLVHINGDTYLHWYLQKPGQSPKLLIYTVFNRFSGVPDRFSGSGSGTDFTLKISRVEAEDLGAYFCSQSTHVPYTFGGGTKLEIKR
notes: Chimeric: murine V regions on human IgG1 heavy constant region and kappa light constant region

Columns and labels:
[1] = molecular target: T1, murine CD22 protein (ACROBiosystems, SI2-M52Ha) (murine, UniProt P35329 22-708); assay: ELISA, coated murine CD22, 0.1 nM Ab
T1 construct: extracellular domain; also called murine CD22-ECD; murine CD22-ECD-His
T1 sequence (looked up): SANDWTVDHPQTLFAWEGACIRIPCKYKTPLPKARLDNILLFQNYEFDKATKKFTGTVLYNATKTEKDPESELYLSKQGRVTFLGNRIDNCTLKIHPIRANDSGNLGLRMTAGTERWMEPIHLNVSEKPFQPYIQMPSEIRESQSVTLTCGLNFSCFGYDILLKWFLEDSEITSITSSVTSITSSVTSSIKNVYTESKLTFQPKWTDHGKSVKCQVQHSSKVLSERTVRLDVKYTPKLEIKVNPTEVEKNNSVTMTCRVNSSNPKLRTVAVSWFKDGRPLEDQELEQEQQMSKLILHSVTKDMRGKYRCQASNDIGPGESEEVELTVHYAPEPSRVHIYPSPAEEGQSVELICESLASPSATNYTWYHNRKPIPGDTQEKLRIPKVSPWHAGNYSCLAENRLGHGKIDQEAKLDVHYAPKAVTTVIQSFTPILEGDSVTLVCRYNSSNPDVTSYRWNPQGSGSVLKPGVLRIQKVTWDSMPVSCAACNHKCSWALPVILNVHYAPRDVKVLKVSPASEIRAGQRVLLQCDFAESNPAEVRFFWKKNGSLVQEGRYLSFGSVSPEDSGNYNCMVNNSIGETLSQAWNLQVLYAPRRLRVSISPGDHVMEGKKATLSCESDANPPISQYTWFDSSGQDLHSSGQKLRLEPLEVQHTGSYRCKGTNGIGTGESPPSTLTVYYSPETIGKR
Method: (§1) In order to detect the binding activity of CD22 human-murine chimeric antibodies to CD22 protein, the purified human CD22-ECD-His protein obtained in Example 2 was diluted with PBS to a final concentration of 2 μg/mL, and then added to 96-well ELISA plate at 100 μl/well. The plate was sealed with plastic film and incubated overnight at 4° C., the plate was washed 2 times with PBS the next day, and then a blocking solution [PBS+2% (w/w) BSA] was added for blocking at room temperature for 2 hours. […] After incubation at 37° C. for 2 hours, the plate was washed 3 times with PBS. HRP (horseradish peroxidase)-labeled secondary antibody (purchased from Sigma, catalog number: A0170) was added, and incubated at 37° C. for 2 hours, and the plate was washed 5 times with PBS. TMB substrate was added at 50 μl/well, and incubated at room temperature for 30 minutes, then a stop solution (1.0 N HCl) was added at 50 μl/well.
(§2) In order to detect the species cross-binding activity of the chimeric antibodies, an ELISA plate was coated with commercial murine CD22 protein (ACROBiosystems, catalog number: SI2-M52Ha) and monkey CD22 protein (ACROBiosystems, catalog number: SI2-R52Ha), respectively, and the ELISA detection was performed according to the method in Example 5.1.

[2] = molecular target: T1, murine CD22 protein (ACROBiosystems, …); assay: ELISA, coated murine CD22, 0.00001 nM Ab
Method: as §1, §2

[3] = molecular target: T2, human CD22, endogenous on Raji cells (human, UniProt P20273 20-847); assay: FACS, Raji cells
T2 construct: whole, on cells; Endogenous protein of the Raji cell line
T2 sequence (looked up): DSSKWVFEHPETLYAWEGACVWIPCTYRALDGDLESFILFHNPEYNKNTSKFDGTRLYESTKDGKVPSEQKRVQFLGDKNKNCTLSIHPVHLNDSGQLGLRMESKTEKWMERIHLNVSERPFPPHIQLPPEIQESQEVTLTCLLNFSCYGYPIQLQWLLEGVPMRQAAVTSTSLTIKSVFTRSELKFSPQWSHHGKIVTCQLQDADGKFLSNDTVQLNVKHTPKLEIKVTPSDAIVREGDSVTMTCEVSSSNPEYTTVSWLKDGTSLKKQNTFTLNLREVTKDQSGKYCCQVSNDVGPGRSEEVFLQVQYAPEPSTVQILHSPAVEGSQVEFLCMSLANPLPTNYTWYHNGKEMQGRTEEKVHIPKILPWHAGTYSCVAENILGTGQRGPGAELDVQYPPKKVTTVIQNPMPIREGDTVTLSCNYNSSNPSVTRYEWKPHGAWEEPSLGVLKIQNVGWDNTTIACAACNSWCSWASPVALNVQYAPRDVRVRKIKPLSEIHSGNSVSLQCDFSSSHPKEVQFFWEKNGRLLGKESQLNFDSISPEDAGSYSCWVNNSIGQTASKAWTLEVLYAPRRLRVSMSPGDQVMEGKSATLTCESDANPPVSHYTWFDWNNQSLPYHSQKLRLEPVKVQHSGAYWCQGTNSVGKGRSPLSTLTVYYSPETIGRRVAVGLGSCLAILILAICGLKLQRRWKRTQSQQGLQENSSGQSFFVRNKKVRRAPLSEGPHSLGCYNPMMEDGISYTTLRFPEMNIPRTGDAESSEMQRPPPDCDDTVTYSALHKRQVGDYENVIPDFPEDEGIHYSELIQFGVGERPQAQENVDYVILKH
From the text: (§3) The required cells were scale-up cultured in a T-75 cell culture flask to the logarithmic growth phase. For the adherent cell CHO-K1, the medium was aspirated, the cells were washed 2 times with PBS buffer, and then digested with trypsin. After the digestion was terminated, the cells were washed 2 times with PBS buffer. For suspension cell Raji, the medium supernatant was directly centrifuged and discarded, and the cell pellet was washed 2 times with PBS. After counting the cells in the previous step, the cell pellet was resuspended with [PBS+2% (w/w) BSA] blocking solution to 2×10⁶ cells/ml, and added to a 96-well FACS reaction plate at 50 μl/well, and then the chimeric antibody test sample was added at 50 μl/well, and incubated on ice for 2 hours. The mixture was centrifuged and washed 3 times with PBS buffer, Alexa Flour 488-labeled secondary antibody (purchased from Invitrogen, catalog number: A-11013) was added at 50 μl/well, and incubated on ice for 1 hour. The obtained mixture was centrifuged and washed 5 times with PBS, and FACS (FACS Canto™, purchased from BD Company) was used for detection and result analysis. Data analysis was performed by software (CellQuest) to obtain the mean fluorescence density (MFI)of the cells. And then software (GraphPad Prism8) was used for analysis, data fitting, and EC50 value calculation. […] The same method was used to detect the binding of the chimeric antibodies to endogenous CD22-negative cell MoLT4 cells (purchased from ATCC, CRL-1582) and CHO-K1 cells.

[4] = molecular target: T1, murine CD22 protein (ACROBiosystems, …); assay: ELISA, coated murine CD22, 100 nM Ab
Method: as §1, §2

[5] = molecular target: T1, murine CD22 protein (ACROBiosystems, …); assay: ELISA, coated murine CD22, 0.0001 nM Ab
Method: as §1, §2

[6] = molecular target: T1, murine CD22 protein (ACROBiosystems, …); assay: ELISA, coated murine CD22, 0.01 nM Ab
Method: as §1, §2

[7] = molecular target: T3, human CD22, full length, on CHO-K1-human CD22 2C4 cells (human, UniProt P20273 20-847); assay: FACS, CHO-K1-human CD22 2C4 cells
T3 construct: Full-length human CD22 (NCBI NP_001762.2) stably transfected into CHO-K1
T3 sequence: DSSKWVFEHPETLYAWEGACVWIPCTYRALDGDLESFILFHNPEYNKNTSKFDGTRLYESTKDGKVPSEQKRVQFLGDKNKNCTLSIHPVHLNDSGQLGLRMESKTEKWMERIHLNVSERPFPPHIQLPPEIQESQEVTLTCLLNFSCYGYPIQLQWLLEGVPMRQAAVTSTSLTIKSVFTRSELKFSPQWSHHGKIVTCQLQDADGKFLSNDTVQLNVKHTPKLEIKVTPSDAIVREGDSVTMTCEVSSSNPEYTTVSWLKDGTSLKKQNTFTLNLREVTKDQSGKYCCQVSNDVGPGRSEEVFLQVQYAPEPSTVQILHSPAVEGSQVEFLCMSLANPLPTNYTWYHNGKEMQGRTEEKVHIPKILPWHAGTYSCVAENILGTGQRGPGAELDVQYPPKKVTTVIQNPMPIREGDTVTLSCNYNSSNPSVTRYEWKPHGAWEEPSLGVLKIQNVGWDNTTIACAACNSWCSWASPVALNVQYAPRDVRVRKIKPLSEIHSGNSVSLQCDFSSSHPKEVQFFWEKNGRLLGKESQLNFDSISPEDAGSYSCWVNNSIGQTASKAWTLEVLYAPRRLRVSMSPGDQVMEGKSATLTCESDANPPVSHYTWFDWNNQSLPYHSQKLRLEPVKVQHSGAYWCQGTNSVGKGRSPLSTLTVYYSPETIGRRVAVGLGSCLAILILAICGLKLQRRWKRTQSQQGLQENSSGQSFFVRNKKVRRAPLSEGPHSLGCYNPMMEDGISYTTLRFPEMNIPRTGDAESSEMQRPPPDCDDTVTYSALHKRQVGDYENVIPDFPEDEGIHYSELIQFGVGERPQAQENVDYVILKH
From the text: as §3

[8] = molecular target: T1, murine CD22 protein (ACROBiosystems, …); assay: ELISA, coated murine CD22, 0.001 nM Ab
Method: as §1, §2

[9] = molecular target: T1, murine CD22 protein (ACROBiosystems, …); assay: ELISA, coated murine CD22, 10 nM Ab
Method: as §1, §2

| Binder | OD450 [1] [OD450] | OD450 [2] [OD450] | EC50 [3] [nM] | Maximum mean fluorescence intensity [3] [MFI] | OD450 [4] [OD450] | OD450 [5] [OD450] | OD450 [6] [OD450] | EC50 [7] [nM] | Maximum mean fluorescence intensity [7] [MFI] | OD450 [8] [OD450] | OD450 [9] [OD450] |
| --- | --- | --- | --- | --- | --- | --- | --- | --- | --- | --- | --- |
| B1 | 0.06 | 0.06 | 0.23 | 25900 | 0.07 | 0.06 | 0.06 | 0.63 | 29700 | 0.06 | 0.06 |
| B2 | 0.05 | 0.05 | 1.39 | 24400 | 0.08 | 0.05 | 0.05 | 2.53 | 28300 | 0.05 | 0.05 |
| B3 | 0.06 | 0.07 | 1.66 | 26700 | 0.07 | 0.07 | 0.06 | 2.08 | 31200 | 0.07 | 0.08 |
| B4 | 0.07 | 0.07 |  |  | 0.11 | 0.07 | 0.07 |  |  | 0.06 | 0.08 |
| B5 | 0.05 | 0.06 | 0.45 | 28800 | 0.06 | 0.05 | 0.05 | 1.18 | 35400 | 0.05 | 0.06 |
